Assays:
Test in all cases: ZFP domain; assay not described
Settings in all cases: tags: FokI C-terminal, 4-aa linker
[1] = target: sca-36b ZFP-FokI (synthetic)
[2] = target: sca-36a ZFP-FokI (synthetic)
[3] = target: sca-r29b ZFP-FokI (synthetic)
[4] = target: sca-36c ZFP-FokI (synthetic)
Chain of sca-36c ZFP-FokI (synthetic) (chain, as listed by the source): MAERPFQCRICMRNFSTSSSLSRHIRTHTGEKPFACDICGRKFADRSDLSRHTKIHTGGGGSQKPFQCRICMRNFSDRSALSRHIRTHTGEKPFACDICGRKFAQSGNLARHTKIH

Chain of sca-36a ZFP-FokI (synthetic) (chain, as listed by the source): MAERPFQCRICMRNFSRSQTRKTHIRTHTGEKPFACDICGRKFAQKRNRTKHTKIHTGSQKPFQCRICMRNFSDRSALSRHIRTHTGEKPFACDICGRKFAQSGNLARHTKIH
Chain of sca-36b ZFP-FokI (synthetic) (chain, as listed by the source): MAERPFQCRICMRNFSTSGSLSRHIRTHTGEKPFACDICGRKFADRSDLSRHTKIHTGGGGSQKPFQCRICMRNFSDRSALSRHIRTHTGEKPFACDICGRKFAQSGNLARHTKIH
Chain of sca-r29b ZFP-FokI (synthetic) (chain, as listed by the source): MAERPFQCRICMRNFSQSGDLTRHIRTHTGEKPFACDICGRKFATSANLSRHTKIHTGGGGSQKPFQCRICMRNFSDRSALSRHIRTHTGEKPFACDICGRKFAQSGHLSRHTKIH

B1: sca-36b site (dsDNA)
DNA 1: GAAGTCTGCCGTT
DNA 2: AACGGCAGACTTC
B1: binds [1].

B2: sca-36a site (dsDNA)
DNA 1: GAAGTCTGCCGT
DNA 2: ACGGCAGACTTC
B2: binds [2].

B3: sca-r29b site (dsDNA)
DNA 1: ACGTAGACTGAGG
DNA 2: CCTCAGTCTACGT
B3: binds [3].

B4: sca-36c site (dsDNA)
DNA 1: GAAGTCTGCCGTT
DNA 2: AACGGCAGACTTC
B4: binds [4].
